Assay results: paper PMC8599648 (Molecular microbiology, 2021)
Changes are numbered by the printed parent chain. In names and notes the source's numbering stands.

B1: YnfK I184Y (enzyme, E. coli (strain MG1655), UniProt P0A6E9 1-231, looked up)
chain: MLKRFFITGTDTSVGKTVVSRALLQALASQGKTVAGYKPVAKGSKETPEGLRNKDALVLQSVSTIELPYEAVNPIALSEEESSVAHSCPINYTLISNGLANLTEKVDHVVVEGTGGWRSLMNDLRPLSEWVVQEQLPVLMVVGIQEGCINHALLTAQAIANDGLPLIGWVANRINPGLAHYAEYIDVLGKKLPAPLIGELPYLPRAEQRELGQYIRLAMLRSVLAVDRVTV
B2: YnfK S13E (enzyme, E. coli (strain MG1655), UniProt P0A6E9 1-231, looked up)
chain: B1 chain with S13E, Y184I
B3: YnfK T114A (enzyme, E. coli (strain MG1655), UniProt P0A6E9 1-231, looked up)
chain: B1 chain with T114A, Y184I
B4: YnfK T114A/I184Y (enzyme, E. coli (strain MG1655), UniProt P0A6E9 1-231, looked up)
chain: B1 chain with T114A
B5: YnfK S13E/I184Y (enzyme, E. coli (strain MG1655), UniProt P0A6E9 1-231, looked up)
chain: B1 chain with S13E
B6: FNR D154A (natural protein, E. coli (strain MG1655), UniProt P0A9E5 1-250, looked up)
chain: MIPEKRIIRRIQSGGCAIHCQDCSISQLCIPFTLNEHELDQLDNIIERKKPIQKGQTLFKAGDELKSLYAIRSGTIKSYTITEQGDEQITGFHLAGDLVGFDAIGSGHHPSFAQALETSMVCEIPFETLDDLSGKMPNLRQQMMRLMSGEIKGAQDMILLLSKKNAEERLAAFIYNLSRRFAQRGFSPREFRLTMTRGDIGNYLGLTVETISRLLGRFQKSGMLAVKGKYITIENNDALAQLAGHTRNVA

Tests used:
cross-linking = target: the molecule itself; assay: cross-linking
SEC = target: the molecule itself; assay: SEC

Protein	binding result (cross-linking)	stoichiometry N (SEC)
B1	binds	
B2	binds	
B3	binds	
B4	binds	
B5	binds	
B6		2
